The values that follow come from patent US6613878B1, “PCNA binding substance” (Cyclacel Limited, priority 1995, dated 2003).

Ends that are not written are not given here.

The target of assay [1] is T1, PCNA (Homo sapiens, UniProt P12004). Description: Peptide precipitation of PCNA from HeLa cell lysate, PC10 Western blot. It is filed as binding. Set-up: HeLa cell lysate was added to the washed beads to a final protein concentration of 1 mg/ml; endogenous in cells; host or cells: HeLa. The conditions noted are these: 2.7 μg peptide on beads; HeLa lysate 1 mg/ml; PC10 immunoblot. As for the experimental part: Twenty amino acid peptides with 15 amino acid overlaps were synthesized (Chiron Mimotopes, Australia) across the 89 amino acids from the C-terminal region of Fen1 identified in the two hybrid screen as the PCNA binding site on Fen1. These peptides were linked via residues SGSG (SEQ ID NO:3) at the amino acid terminus to biotin. 2.7 μg of each peptide was incubated with 10 μl streptavidin agarose beads (Sigma) in phosphate buffered saline (PBS) for 1 hour at room temperature (r.t.) then beads were washed extensively in PBS and recovered each time by centrifugation at 11,600 g. HeLa cell lysate was added to the washed beads to a final protein concentration of 1 mg/ml and incubated with the beads on ice for 1 hour. Beads were extensively washed in PBS with 220 mM NaCl, then bound proteins removed by boiling for 8 minutes in SDS loading buffer with 0.2 M DTT. Proteins were separated on 10% SDS-PAGE then electrophoretically transferred to nitrocellulose. Blots were blocked then incubated for 1 hour r.t. with PC 10 hybridoma supernatant (Waseem & Lane, 1990) diluted 1:5 in DMEM with 10% FCS. After washing, secondary HRP-conjugated anti-mouse IgG serum at 1:1000 in 2% non-fat milk-PBS-0.2% Tween was added for 1 hour at r.t. Bound antibody was visualised using the ECL system according to the manufacturer's instructions (Amersham plc.)
To map precisely the residues of Fen1 to which PCNA binds, a series of biotinylated 20 amino acids peptides (with 15 amino acid overlaps) were synthesized representing the region of Fen1 found to interact with PCNA in the two hybrid screen (FIG. 1). Fen1 peptides (bound to streptavidin agarose beads) were incubated with human HeLa cell extracts, then beads were precipitated and bound protein analysed on immunoblots probed with monoclonal anti-PCNA antibody PC10 (Waseen & Lane, 1990).
The region of human Fen1 recognised by PCNA in the precipitation assay contains a motif highly conserved in the Fen1 family. We examined whether human PCNA could bind to his motif in the yeast homologues of Fen1, S. pombe rad2 and […]/YKL510. […]
On the technique in general: A western blot detects proteins with antibodies after separation by electrophoresis.

Assay [2] addresses T1, PCNA. Kind of assay: Competitive ELISA: PCNA binding to immobilised FenPBP (peptide 84). Conditions: non-biotinylated 9-mer, FIG. 4. Further details: made in house; used as unpurified lysate. The protocol:
Biotinylated FenPBP (peptide 84 (SEQ ID NO:4)—see FIG. 2) was immobilised on ELISA dishes pre-coated with streptavidin. Bacterial cell lysate overexpressing recombinant human PCNA was mixed with increasing amounts of a non-biotinylated 9 amino acid peptide QTSMTDFYH (SEQ ID NO:2) derived from p21PBP (Warbrick et al., 1995), then binding of PCNA to the immobilised FenPBP was measured using polyclonal antibody 3009 against PCNA, followed by HRP-anti-rabbit antibody,and calorimetric detection at 450 nm.
ELISA plates were coated overnight at 37° C. with 100 ng of streptavidin per well. Plates were blocked with 5% non-fat milk powder in PBS, washed extensively with PBS containing 0.2% Tween 20 (PBS-T) then 100 μl FenPBP—peptide 84 (SEQ ID NO:4) (see FIG. 2)—at 10 μg/ml was added to each well. Following 1 hour incubation at r.t. in a humid chamber, wells were washed extensively. Approximately 3.5 μg total protein containing overexpressed recombinant human PCNA was mixed with varying concentrations of a 9 amino acid peptide derived from p21PBP (Warbrick et al, 1995), of the sequence QTSMTDFYH (SEQ ID NO:2) (purified by HPLC and verified by mass spectrometry) and applied to the wells for 1 hour at r.t. After extensive washing, anti-PCNA polyclonal antibody 3009 (Cox et al., manuscript in preparation) was added at 1:1000, followed by HRP-conjugated anti-rabbit IgG serum at 1:1000, and bound antibody was visualized by the TMB colormetric procedure (Harlow & Lane, 1998). Plated were read at 450 nm using a Dynatech 5000 plate reader.
Since the region of PCNA bound by Fen1 is the same as that recognised by p21^Cip1, and the motif of Fen1 required for PCNA interaction appears homologous to the critical residues of p21PBP (Warbrick et al., 1995), it is highly possible that Fen1 and p21^Cip1 might compete for binding to PCNA. We therefore tested this hypothesis using PCNA-interacting peptide 84 (SEQ ID NO:4) of Fen1 (dubbed Fen1PBP for Fen1-PCNA binding peptide) immobilised in ELISA wells. […]
A general note: An ELISA detects its analyte on a solid surface through an enzyme-linked reagent.

T1 sequence (P12004 whole entry): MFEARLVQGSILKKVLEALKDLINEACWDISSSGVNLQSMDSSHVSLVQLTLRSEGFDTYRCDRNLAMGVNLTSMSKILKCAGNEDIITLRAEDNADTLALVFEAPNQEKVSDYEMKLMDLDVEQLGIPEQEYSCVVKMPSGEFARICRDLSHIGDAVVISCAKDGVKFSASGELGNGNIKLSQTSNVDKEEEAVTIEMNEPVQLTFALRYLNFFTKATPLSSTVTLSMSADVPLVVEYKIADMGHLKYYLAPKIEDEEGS

On to “85: Biotinylated 20 amino acid peptide of the human Fen1 C-terminal region containing TQGRLDDFFK (SGSGSRQGSTQGRLDDFFKVTGSL; also: biotinylated) [compound 85]”, for which, in the assay with PCNA [1], the “PCNA precipitated from HeLa cell extract by biotinylated peptide on streptavidin agarose beads” value is “equal efficiency”.
The same measure, in the same setting: the value for “86: Biotinylated 20 amino acid peptide of the human Fen1 C-terminal region containing TQGRLDDFFK (SGSGTQGRLDDFFKVTGSLSSAKR; also: biotinylated) [compound 86]” was “equal efficiency”.
As for “QTSMTDFYH [Non-biotinylated 9 amino acid peptide derived from p21PBP (Warbrick et al., 1995)]”, in the assay with PCNA [2] (immobilised Fen1PBP), the “Concentration of added peptide giving total displacement of PCNA from immobilised Fen1PBP” value amounted to 1 mM. The “Concentration of peptide that completely prevented PCNA binding to Fen1PBP (approximate molar)” value with PCNA [2] (immobilised biotinylated FenPBP) is given as “approximately 1 μM”. Further, the “Concentration of peptide that completely prevented PCNA binding to Fen1PBP” value with PCNA [2] (immobilised biotinylated FenPBP, antibody 3009, read at 450 nm) was determined as 1 µg/mL.
In the case of “peptide 84: Biotinylated (SGSG-linked) 20 amino acid peptide of the human Fen1 C-terminal region containing TQGRLDDFFK; Fen1-PCNA binding peptide (SGSGKRLSKSRQGSTQGRLDDFFK; also: biotinylated, site not given here)”, the “PCNA precipitated from HeLa cell extract by biotinylated peptide on streptavidin agarose beads” value in the assay with PCNA [1] was “equal efficiency”.
